According to patent US20080152645A1 (ARMAGEN TECHNOLOGIES, published 2008):

Molecular target: T1, Aβ^1-40 amyloid peptide (human, UniProt P05067 672-711)
T1 construct: domain: Aβ^1-40; Plated on 96-well plates in ELISA and IRMA; also called Aβ^1-40 peptide; Aβ^1-40 aggregates
Assay: ELISA on plated Aβ^1-40, COS cell medium, detection with biotinylated 9E10 MAb
Text: FIG. 29. […] The mAβScFv binds to the amyloid peptide, and the 9E10 anti-c-myc MAb binds to the […] epitope fused to the carboxyl terminus of the protein (FIG. 9). The 9E10 MAb is biotinylated, which enables detection with a conjugate of streptavidin and peroxidase. Medium conditioned by COS cells that were transfected with pCD-mAβScFv produced a high signal in the assay, whereas medium from COS cells exposed only to Lipofectamine (LIPO) produced no signal.
The binding of the mAβScFv to the Aβ¹⁻⁴⁰ amyloid peptide was verified with a specific ELISA. The Aβ¹⁻⁴⁰ amyloid peptide was plated in 96-well plates, followed by the addition of the media conditioned by COS cells transfected with the pCD-mAβScFv plasmid and Lipofectamine-2000. The anti-A, ScFv contains a C-terminal 10-amino acid c-myc epitope, which is recognized by the 9E10 MAb (FIG. 29A). The 9E10 MAb is biotinylated, which enables quantitation of the […] binding to Aβ¹⁻⁴⁰ by a peroxidase detection system and A492 readings (FIG. 29A).

B1: mAβScFv, murine single chain Fv antibody against the Aβ peptide, secreted by COS cells transfected with pCD-mAβScFv (scFv)
scFv: QVQLQQSGAELVKPGATVKLSCKASGYSFNSHYIYWVKQRPGQGLEWIGEINPSNGAMNFNEKFKNKATLTVDKSSSTAYMQLSSLTSEDSAVYYCVRDPTSYWGQGTLVTVSAAKTTPKLEEGEFSEARVDIVMTQTPLSLPVSLGDQASISCRSSQSLVHSYGNTYLHWYLQKPGQSPKLLIYKVSNRFSGVPDRFSGSGSGTDFTLKISRVEAEDLGVYFCSQSTHVPYTFGGGTKLEIKRADAAAAGSEQKLISEEDL
notes: Tested as COS cell conditioned medium; No His tag in this construct; VL has Ile at position 2; also called anti-Aβ ScFv; anti-mAβScFv
B1: binds.
